# Data published in patent US20250340666A1 (REGENTS OF THE UNIVERSITY OF COLORADO A BODY CORPORATE, published 2025).
# T1: human CD99 (human, UniProt P14209 23-185)
# T1 construct: whole, on cells; Endogenous CD99 on patient-derived DIPG cells (flow cytometry) and DIPG tumor tissue sections (IHC); also called MIC2/CD99; cell surface CD99 protein
# T1 sequence (looked up): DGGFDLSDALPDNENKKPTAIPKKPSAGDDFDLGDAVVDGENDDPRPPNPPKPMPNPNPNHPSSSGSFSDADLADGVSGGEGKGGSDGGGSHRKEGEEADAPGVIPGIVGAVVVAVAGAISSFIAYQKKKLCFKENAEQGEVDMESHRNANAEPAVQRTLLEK
# T2: CD99 epitope peptide antigen (15 amino acid sequence, SEQ ID NO: 1) (human)
# T2 construct: It was used with an SA (streptavidin) biosensor
# T2 peptide: DGENDDPRPPNPPKC
# B1: 10D1-CD99 antibody (antibody, V domains shown)
# VH: EVQLQQSGPELVKPGASVKISCKASGYSFTGYYMHWVKQSHVKSLEWIGRINPYTGATTYNQIFKDKATLTLDKSSSTAYMELHSLTSEDSAIFYCARYYYGNNYNVYLDYWGQGTTLTVSS
# VL: DIQLTQTTSSLSASLGDRVTISCSASQGISNYLSWYQQKPDGTFKLLIYYTSTLHSGVPSRFSGSGSGTDYSLTISNLEPEDIATYYCQQYSNLPWTFGGGTRLEIK
# notes: also called rh10D1 anti-CD99 antibody; rh10D1-CD99
# Assays:
# human CD99 = target: T1, human CD99; test: flow cytometry on DIPG cells: pre-incubation with 10D1-CD99 antibody, then detection of CD99 with the commercial 0662 CD99 antibody (the competitor)
# Method: The engagement/binding of the presently disclosed 10D1-CD99 antibody to the human CD99 epitope was tested.
# [1] = target: T2, CD99 epitope peptide antigen (15 amino …); test: BLI, OctetRED 384, SA biosensor
# Method: The affinity of one embodiment of the disclosed anti-CD99 antibody was tested against the CD99 epitope. Specifically, the epitope was a peptide antigen and the anti-CD99 antibody was the embodiment of 10D1-1 human IgG4/light chain1. As shown in FIG. 20. affinity was analyzed using an SA biosensor, and association and dissociation constants were monitored using OctetRED 384. […] 400 pM, 350 pM, 300 pM, 250 pM, 200 pM, 150 pM, 100 pM, 90 pM, 80 pM, 70 pM. 60 pM, 50 pM, 40 pM, 30 pM, 20 pM, or 10 pM, and less than about 1 pM, 10 pM, 50 pM, 100 pM, 200 pM, 300 pM, 400 pM, 500 pM, 600 pM. 700 pM, 800 pM, or900 pM.
binder,measurement,setting,value
B1,binding result,human CD99,binds
same,Kd,[1],0.436 nM
same,koff,[1],0.000744 s⁻¹
same,kon,[1],~1.71e+06 M⁻¹ s⁻¹
